Assay results reported in patent US20170283509A1 (University of Texas, published 2017).

T1: human recombinant AGR2 (rAGR2) (ab64013, AbCam) (human, UniProt O95994 21-175, limits assumed)
T1 construct: also called extracellular AGR2
T1 sequence: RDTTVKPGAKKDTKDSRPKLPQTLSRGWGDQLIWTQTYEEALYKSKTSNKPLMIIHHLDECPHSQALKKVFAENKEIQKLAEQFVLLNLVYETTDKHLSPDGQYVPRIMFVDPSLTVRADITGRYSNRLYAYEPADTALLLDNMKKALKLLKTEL

T2: AGR2 antigenic peptide (CIHHLDESPHSQALKKVFAENKEIQKLAEQ; SEQ ID NO: 3) (human)
T2 peptide: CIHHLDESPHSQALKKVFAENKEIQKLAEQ

T3: C4.4A (LYPD3), endogenous protein of PDAC cells (human, UniProt O95274 31-326)
T3 construct: On PDAC cells in the functional assays
T3 sequence: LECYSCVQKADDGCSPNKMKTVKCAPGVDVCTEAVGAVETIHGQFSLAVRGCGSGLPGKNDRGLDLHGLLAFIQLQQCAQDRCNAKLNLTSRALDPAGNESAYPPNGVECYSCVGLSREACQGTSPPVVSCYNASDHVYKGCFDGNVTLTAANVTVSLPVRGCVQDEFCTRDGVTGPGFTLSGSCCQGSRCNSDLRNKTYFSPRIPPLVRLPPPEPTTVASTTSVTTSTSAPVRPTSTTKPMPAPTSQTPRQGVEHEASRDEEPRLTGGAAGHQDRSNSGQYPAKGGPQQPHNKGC

T4: C4.4A antigenic peptide (CPVRPTSTTKPMPAPTSQTPRQGVEHEASRDEEPRL; SEQ ID NO: 4) (human)
T4 peptide: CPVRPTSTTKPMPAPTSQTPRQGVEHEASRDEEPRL

T5: dystroglycan-1 (DAG-1) (UniProt Q14118 30-895, limits assumed)
T5 construct: Endogenous protein of a PDAC cell lysate; also called Dystoglycan-1
T5 sequence (looked up): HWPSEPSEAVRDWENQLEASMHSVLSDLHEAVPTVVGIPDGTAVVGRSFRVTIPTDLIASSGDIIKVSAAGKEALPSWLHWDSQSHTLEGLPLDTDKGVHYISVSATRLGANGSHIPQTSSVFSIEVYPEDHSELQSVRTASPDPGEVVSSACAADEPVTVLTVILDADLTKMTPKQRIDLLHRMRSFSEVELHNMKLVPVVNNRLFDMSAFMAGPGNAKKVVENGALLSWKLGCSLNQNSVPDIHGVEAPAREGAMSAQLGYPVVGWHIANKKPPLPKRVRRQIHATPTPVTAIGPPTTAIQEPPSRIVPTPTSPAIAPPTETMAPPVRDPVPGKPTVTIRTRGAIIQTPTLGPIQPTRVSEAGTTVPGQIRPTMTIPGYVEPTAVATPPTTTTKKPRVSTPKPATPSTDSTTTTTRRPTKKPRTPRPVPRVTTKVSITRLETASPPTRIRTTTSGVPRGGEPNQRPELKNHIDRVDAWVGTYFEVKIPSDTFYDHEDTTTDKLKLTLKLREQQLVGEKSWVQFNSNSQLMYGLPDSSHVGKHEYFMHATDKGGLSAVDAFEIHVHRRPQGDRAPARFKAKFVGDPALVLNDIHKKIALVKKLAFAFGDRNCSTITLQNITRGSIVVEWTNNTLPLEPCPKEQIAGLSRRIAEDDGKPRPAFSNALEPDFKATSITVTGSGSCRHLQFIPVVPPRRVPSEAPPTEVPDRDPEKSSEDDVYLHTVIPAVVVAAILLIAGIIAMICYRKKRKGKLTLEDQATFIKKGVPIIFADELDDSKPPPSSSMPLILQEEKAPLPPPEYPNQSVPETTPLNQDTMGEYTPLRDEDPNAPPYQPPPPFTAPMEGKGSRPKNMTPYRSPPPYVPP

B1: 163-28B-1 monoclonal antibody (antibody, V domains shown)
VH: QIQLVQSGPELKKPGETVKISCKASGYTFTNYGMNWVKQAPGKGLKWMGWINTDTGKPTYTEEFKGRFAFSLATSASTAYLQINNLRNEDTATYFCGRVTADSMDYWGQGTSVTVSS
VL: DVVMTQTPLSLPVSLGDQASISCRSSQSLVHSNGNIYLHWFLQKPGQSPKLLIYKVSNRFSGVPDRFSGSGSGTDFTLKISRVEAEDLGVYFCSQSTHVPLTFGAGTKLELK
notes: also called AGR2 mAb; clone 28B
B2: 162-1A-1 monoclonal antibody (antibody, V domains shown)
VH: EVMLVESGGGLVKPGGSLKLSCAASGFTFSSYTMSWVRQTPEKRLEWVASISSGGGNTYYADSVKGRFTMSRDNAKNNLYLQMSSLRSEDTALYYCARSYYYGISYDTYWGQGTLVTVSA
VL: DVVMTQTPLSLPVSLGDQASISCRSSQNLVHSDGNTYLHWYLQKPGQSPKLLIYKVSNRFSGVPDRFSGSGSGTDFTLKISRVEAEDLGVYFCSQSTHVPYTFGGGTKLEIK
notes: also called C4.4A mAb; clone 1A
B3: Anterior Gradient 2 (AGR2), endogenous protein from PDAC cell lysate (SU86.86) (ligand)
chain: T1 sequence
notes: Endogenous AGR2 of human pancreatic cancer cell lysates, used in IP and western blot; also called hAG-2; Gob-4

Columns and labels:
[1] = target: B3; test: western blot (FIG. 5A)
[2] = target: T1, human recombinant AGR2 (rAGR2) …; test: western blot (FIG. 5A)
[3] = target: T2, AGR2 antigenic peptide …; test: ELISA, antigenic peptide (0.5 ug) coated, probed with purified Ab (FIG. 11C)
Protocol: (§1) FIGS. 11A-D. Monoclonal antibodies developed bind respectively to AGR2 and C4.4A proteins and blocked their functions. From the endogenous lysate (SU86.86/Panc-1), AGR2 (18 kD) and C4.4A (50 kD) were identified by a panel of mAbs. […] Extra bands identified with the endogenous protein were re-confirmed with the recombinant protein. For apoptosis studies, AsPC-1 cells were treated without or with Gem (0.5 μM) and rAGR2 (100 nM) and with purified (A) AGR2 and (B) C4.4A Abs (1 μM). Commercially available Abs served as control. […] Horizontal line represents median apoptotic value. Data shown are mean±SE for 3 experiments (*p<0.05). (C,D) Binding assays were conducted with purified (C) AGR2 and (D) C4.4A Abs as selected from the apoptosis assay as having high blocking efficiency. ELISA assays were conducted by coating antigenic peptide (0.5 μg) and probed with respective purified Abs. Data shown are mean±SE for 3 experiments (*p <0.05). Based on high specificity and binding, clone 28B for AGR2 and 1A for C4.4A were selected. Purified Abs were also run on 4-20% gradient gel to check for the presence of heavy (50 kD) and light chains (25 kD).

[4] = target: T3, C4.4A (LYPD3), endogenous protein of …; test: western blot (FIG. 5A)
[5] = target: T4, C4.4A antigenic peptide …; test: ELISA, antigenic peptide (0.5 ug) coated, probed with purified Ab (FIG. 11D)
Protocol: as §1

[6] = target: T3, C4.4A (LYPD3), endogenous protein of …; test: co-immunoprecipitation from SU86.86 lysate with commercial anti-AGR2 antibody, western blot
dystroglycan-1 (DAG-1) = target: T5, dystroglycan-1 (DAG-1); test: as above

B1
binding result [1]: binds
binding result [2]: binds
binding result [3]: binds

B2
binding result [4]: binds
binding result [5]: binds

B3
binding result [6]: binds
binding result (dystroglycan-1 (DAG-1)): no binding
